In patent US20210292397A1 (LA TROBE UNIVERSITY, published 2021) one finds binding result and Kd data, which are given here for 7 molecules.

Usually Kd stands for the constant that tells how readily two partners part at equilibrium.

To fix the notation:
B5: Ag43a passenger domain (Ag43a^α) from UPEC strain CFT073 (other)
chain: ADIVVHPGETVNGGTLVNHDNQFVSGTANGVTVSTGLELGPDSDENTGGQWIKAGGTGRNTTVTANGRQIVQAGGTASDTVIRDGGGQSLNGLAVNTTLDNRGEQWVHGGGKAAGTIINQDGYQTIKHGGLATGTIVNTGAEGGPESENVSSGQMVGGTAESTTINKNGRQVIWSSGMARDTLIYAGGDQTVHGEAHNTRLEGGNQYVHNGGTATETLINRDGWQVIKEGGTAAHTTINQKGKLQVNAGGKASDVTQNTGGALVTSTAATVTGTNRLGAFSVVAGKADNVVLENGGRLDVLSGHTATNTRVDDGGTLDIRNGGAATTVSMGNGGVLLADSGAAVSGTRSDGKAFSIGGGQADALMLEKGSSFTLNAGDTATDTTVNGGLFTARGGTLAGTTTLNNGAILTLSGKTVNNDTLTIREGDALLQGGSLTGNGSVEKSGSGTLTVSNTTLTQKAVNLNEGTLTLNDSTVTTDVIAQRGTALKLTGSTVLNGAID
notes: also called Ag43^α; α^43a

Series [1] concerns the molecule itself. In words: crystal structure (FIG. 12D).
Series [2] deals with the molecule itself. In words: crystal structure (FIG. 12B).
The target of series [3] is B5.
In a further series the target is human fibronectin (human, UniProt P02751 32-2477).
Another series concerns the target T1, Fibrinogen.
T1 construct: also called human fibrinogen
T1 alpha: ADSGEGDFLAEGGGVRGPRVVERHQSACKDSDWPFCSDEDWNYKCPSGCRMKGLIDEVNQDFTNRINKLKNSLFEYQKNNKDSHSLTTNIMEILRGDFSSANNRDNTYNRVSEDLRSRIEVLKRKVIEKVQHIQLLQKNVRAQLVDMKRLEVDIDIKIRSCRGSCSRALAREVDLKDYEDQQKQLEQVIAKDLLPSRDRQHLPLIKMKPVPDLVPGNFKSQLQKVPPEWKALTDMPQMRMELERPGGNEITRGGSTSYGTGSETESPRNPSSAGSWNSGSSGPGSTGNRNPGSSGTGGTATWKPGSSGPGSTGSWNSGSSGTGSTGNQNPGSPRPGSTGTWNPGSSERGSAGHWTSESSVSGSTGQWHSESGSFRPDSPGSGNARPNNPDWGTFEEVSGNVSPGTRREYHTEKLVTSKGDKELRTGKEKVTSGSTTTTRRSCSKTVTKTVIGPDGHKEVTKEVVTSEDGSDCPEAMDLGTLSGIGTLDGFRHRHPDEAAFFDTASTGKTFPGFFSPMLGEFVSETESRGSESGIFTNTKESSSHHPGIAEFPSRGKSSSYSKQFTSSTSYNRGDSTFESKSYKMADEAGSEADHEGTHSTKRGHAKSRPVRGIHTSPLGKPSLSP
T1 beta: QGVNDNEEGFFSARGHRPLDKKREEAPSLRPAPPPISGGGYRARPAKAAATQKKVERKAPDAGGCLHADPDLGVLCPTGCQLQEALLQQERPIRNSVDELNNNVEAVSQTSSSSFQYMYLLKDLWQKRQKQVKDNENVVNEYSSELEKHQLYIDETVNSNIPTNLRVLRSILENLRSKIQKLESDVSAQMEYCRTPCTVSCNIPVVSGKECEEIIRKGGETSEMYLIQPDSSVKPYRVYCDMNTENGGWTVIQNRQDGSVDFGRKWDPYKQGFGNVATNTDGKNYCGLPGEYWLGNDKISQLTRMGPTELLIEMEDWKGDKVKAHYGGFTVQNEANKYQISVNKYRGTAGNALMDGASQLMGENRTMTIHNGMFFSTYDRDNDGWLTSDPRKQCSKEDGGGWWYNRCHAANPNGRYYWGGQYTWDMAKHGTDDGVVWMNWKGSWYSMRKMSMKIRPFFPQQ
T1 gamma: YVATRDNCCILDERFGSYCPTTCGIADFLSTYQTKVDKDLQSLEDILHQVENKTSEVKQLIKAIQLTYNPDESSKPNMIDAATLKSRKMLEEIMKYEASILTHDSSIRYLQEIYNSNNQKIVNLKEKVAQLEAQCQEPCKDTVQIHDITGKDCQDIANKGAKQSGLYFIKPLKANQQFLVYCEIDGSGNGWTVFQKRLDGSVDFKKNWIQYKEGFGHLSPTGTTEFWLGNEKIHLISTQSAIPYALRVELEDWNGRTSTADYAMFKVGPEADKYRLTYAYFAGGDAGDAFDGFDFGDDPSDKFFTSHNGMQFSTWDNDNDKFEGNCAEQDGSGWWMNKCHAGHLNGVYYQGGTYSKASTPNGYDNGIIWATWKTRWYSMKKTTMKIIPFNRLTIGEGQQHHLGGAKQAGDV
In words: ELISA, absorbance at 405 nm, n=9, PBS as control. A general note: An ELISA detects its analyte on a solid surface through an enzyme-linked reagent.

Series [4] concerns the molecule itself. As to the kind of experiment: crystal structure (FIG. 1B).
Series [5] concerns the molecule itself. As to the kind of experiment: crystal structure (FIG. 12C).
Series [6] concerns the molecule itself. In words: crystal structure (FIG. 12A).

human fibronectin, sequence (P02751 32-2477 limits assumed): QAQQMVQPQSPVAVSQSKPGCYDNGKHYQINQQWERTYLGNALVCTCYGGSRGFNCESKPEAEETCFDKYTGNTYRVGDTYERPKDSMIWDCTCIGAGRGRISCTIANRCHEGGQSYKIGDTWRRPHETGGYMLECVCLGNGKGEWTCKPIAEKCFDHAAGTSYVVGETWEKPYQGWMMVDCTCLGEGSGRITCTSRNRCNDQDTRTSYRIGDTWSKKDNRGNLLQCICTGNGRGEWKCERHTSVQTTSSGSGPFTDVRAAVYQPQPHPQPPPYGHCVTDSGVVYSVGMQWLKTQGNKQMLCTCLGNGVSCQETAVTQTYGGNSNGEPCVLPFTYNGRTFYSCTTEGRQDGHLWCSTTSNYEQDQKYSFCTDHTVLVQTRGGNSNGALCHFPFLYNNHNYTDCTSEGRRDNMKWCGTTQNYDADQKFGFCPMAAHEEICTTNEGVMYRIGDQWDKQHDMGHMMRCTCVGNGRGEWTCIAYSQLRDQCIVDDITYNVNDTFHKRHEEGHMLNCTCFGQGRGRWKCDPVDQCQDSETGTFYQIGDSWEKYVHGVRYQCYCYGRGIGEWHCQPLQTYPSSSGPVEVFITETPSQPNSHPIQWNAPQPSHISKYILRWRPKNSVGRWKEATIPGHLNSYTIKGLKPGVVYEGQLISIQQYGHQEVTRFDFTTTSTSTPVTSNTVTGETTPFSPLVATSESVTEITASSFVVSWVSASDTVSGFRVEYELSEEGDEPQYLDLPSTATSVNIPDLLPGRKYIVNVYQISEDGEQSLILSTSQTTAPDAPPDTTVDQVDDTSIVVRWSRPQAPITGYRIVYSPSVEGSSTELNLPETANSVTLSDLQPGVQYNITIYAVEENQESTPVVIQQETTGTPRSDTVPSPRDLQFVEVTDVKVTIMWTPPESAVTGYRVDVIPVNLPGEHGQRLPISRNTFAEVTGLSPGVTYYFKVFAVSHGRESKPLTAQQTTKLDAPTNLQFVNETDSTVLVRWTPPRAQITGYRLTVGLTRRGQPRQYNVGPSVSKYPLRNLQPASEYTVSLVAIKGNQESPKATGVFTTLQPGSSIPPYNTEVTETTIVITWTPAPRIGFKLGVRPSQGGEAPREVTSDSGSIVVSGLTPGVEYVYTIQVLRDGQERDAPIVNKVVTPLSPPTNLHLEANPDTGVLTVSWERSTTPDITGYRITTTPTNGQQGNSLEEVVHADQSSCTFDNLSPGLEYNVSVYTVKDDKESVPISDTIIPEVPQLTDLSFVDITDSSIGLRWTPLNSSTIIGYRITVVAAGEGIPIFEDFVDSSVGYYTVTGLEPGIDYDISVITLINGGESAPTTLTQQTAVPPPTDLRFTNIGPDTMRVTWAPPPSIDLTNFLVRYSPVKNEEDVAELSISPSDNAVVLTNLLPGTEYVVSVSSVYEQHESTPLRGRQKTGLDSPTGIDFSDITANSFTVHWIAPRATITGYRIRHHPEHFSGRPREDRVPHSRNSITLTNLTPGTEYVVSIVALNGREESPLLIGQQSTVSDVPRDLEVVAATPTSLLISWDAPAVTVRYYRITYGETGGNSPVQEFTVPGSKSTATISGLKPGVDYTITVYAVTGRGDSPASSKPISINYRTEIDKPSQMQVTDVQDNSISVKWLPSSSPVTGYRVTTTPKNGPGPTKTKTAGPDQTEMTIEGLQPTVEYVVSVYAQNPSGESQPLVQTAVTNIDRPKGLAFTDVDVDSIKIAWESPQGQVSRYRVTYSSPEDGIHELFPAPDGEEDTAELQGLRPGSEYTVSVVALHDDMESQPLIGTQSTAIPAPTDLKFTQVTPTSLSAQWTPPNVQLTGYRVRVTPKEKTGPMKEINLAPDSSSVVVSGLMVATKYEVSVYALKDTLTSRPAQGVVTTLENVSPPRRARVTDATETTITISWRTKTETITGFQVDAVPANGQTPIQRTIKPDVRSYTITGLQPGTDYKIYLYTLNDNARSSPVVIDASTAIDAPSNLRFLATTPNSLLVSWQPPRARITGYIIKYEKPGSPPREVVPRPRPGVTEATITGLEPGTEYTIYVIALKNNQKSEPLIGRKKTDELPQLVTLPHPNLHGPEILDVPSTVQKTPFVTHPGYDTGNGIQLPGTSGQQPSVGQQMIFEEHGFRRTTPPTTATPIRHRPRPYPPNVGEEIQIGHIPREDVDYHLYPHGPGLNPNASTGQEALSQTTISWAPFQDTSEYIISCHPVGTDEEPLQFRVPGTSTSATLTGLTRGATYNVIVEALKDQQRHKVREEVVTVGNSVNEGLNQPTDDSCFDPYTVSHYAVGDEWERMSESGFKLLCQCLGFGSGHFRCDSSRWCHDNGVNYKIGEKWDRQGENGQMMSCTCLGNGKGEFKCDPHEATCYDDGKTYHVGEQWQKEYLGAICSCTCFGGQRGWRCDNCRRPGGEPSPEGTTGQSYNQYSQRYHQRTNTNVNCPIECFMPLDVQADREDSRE

B1: TibA passenger domain (TibA^α) from the enterotoxigenic E. coli strain H10407 (other)
chain: YDNQTIGRGETSKSMHLSAGDTAKNTTINSGGKQYVSSGGSATSTTINIGGVQHVSSGGSATSSTINSGGHQHVSSGGSATNTTVNNGGRQTVFSGGSAMGTIINSGGDQYVISGGSATSASVTSGARQFVSSGGIVKATSVNSGGRQYVRDGGSATDTVLNNTGRQFVSSGGSAAKTTINSGGGMYLYGGSATGTSIYNGGRQYVSSGGSATNTTVYSGGRQHVYIDGNVTETTITSGGMLQVEAGGSASKVIQNSGGAVITNTSAAVSGTNDNGSFSIAGGSAVNMLLENGGYLTVFDGHQASDTMVGSDGTLDVRSGGVLYGTTTLTDKGALVGDVVTNEGNLYYLNNSTATFTGTLTGTGTLTQEGGNTRFSGLLSQDGGIFLQSGGAMTMDALQAKANVTTQSGTTLTLDNGTILTGNVAGDSTGAGDMAVKGASVWHLDGDSTVGALTLDNGTVDFRPSTTTRMTPAFQAVSLALGSLSGSGTFQMNTDIASHTGDMLNVAGNASGNFVLDIKNTGLEPVSAGAPLQVVQTGGGDAAFTLKGGKVDAGTWEYGLSKENTNWYLKADT
Take B1: the binding result in series [1] is “binds”.

B2: Ag43 passenger domain (Ag43^α) from UPEC strain UTI189 (other)
chain: ADTVVQAGETVNGGTLTNHDNQIVLGTANGMTISTGLEYGPDNEANTGGQWIQNGGIANNTTVTGGGLQRVNAGGSVSDTVISAGGGQSLQGQAVNTTLNGGEQWVHEGGIATGTVINEKGWQAVKSGAMATDTVVNTGAEGGPDAENGDTGQTVYGDAVRTTINKNGRQIVAAEGTANTTVVYAGGDQTVHGHALDTTLNGGYQYVHNGGTASDTVVNSDGWQIIKEGGLADFTTVNQKGKLQVNAGGTATNVTLTQGGALVTSTAATVTGSNRLGNFTVENGNADGVVLESGGRLDVLEGHSAWKTLVDDGGTLAVSAGGKATDVTMTSGGALIADSGATVEGTNASGKFSIDGISGQASGLLLENGGSFTVNAGGLASNTTVGHRGTLTLAAGGSLSGRTQLSKGASMVLNGDVVSTGDIVNAGEIRFDNQTTPDAALSRAVAKGDSPVTFHKLTTSNLTGQGGTINMRVRLDGSNASDQLVINGGQATGKTWLAFTNVGNSNLGVATSGQGIRVVDAQNGATTEEGAFALSRPLQAGAFNYTLNRDSDE
Take B2: the binding result in series [2] is “binds”.

B3: Fab10C12 (Fab, V domains shown)
VH: QVQLQQPGTELVKPGASVKLSCKASGYTFTNYWMHWVKQRPGQGLEWIGNIGPSSGNTNYNENFKTKATLTVDKSSSTAYMQLSSLTSEDSAVYFCARWGSIRAMDYWGQGTSVTVSS
VL: SIVMTQTPKFLFVSVGDRVTITCKASQSVNNDVAWYQQKPGQSPKLLIYFASNRYTGVPDRFTGSGYGTDFTFTINTVQAEDLAVYFCQQDYSSPQTFGGGTKLEVTR
On to B3, for which, in series [3], the affinity, expressed as Kd, was 0.00728 µM.

B4: UpaB α-domain (α^UpaB) from UPEC strain CFT073 (other)
chain: TDSTVSTDPVTLNTEKTTLDQDVVINGDNKITAVTIETSDSDKDLNVTFGGHDITAASTVNQDFVEGVKVSGNKNVVINATDSTITAQGEGTYVRTAMVIDSTGDVVVNGGNFVAKNEKGSATGISLEATTGNNLTLNGTTINAQGNKSYSNGSTAIFAQKGNLLQGFDGDATDNITLADSNIINGGIETIVTAGNKTGIHTVNLNIKDGSVIGAANNKQTIYASASAQGAGSATQNLNLSVADSTIYSDVLALSESENSASTTTNVNMNVARSYWEGNAYTFNSGDKAGSDLDINLSDSSVWKGKVSGAGDASVSLQNGSVWNVTGSSTVDALAVKDSTVNITKATVNTGTFASQNGTLIVDASSENTLDISGKASGDLRVYSAGSLDLINEQTAFISTGKDSTLKATGTTEGGLYQYDLTQGADGNFYFVKNTHKASNASSVIQAMAAAPANVANLQADTL
notes: also called α^UPaB (native)
In turn, B4 gave a Kd with human fibronectin of 45.2 µM. In addition, in the series with Fibrinogen, the binding result is listed as “no binding”.

In the case of B5, in series [4], the binding result was “binds”.

B6: Ag43b passenger domain (Ag43b^α) from uropathogenic E. coli strain CFT073 (other)
chain: ADSVVPAGETVNGGTLINHDRQFVSGTADGMTVSTGLELGADSDNNTGGQQIARGGTARNTRVTANGLQDVMAGGSTSDTVISTGGGQNLRGKASGTVLNGGDQWIHAGGRASGTVINQDGYQTIKHGGLVTGTIVNTGAEGGPDSENVSTGQMVGGIAESTTINKNGRQVIWSSGIARDTLIYTGGDQTVHGEAHNTRLEGGNQYVHKYGLALNTVINEGGWQVVKAGGTAGNTTINQNGELRVHAGGEASDVTQNTGGALVTSTAATVTGTNRLGAFSVVEGKADNVVLENGGRLDVLSGHTATRTLVDDGGTLDVRNGGTATAVSMGNGGVLLADSGAAVSGTRSDGTAFRIGGGQADALMLEKGSSFTLNAGDTATDTTVNGGLFTARGGSLAGTTTLNNGATFTLAGKTVNNDTLTIREGDALLQGGALTGNGRVEKSGSGTLTVSNTTLTQKAVNLNEGTLTLNDSTVTTDIIAHRGTALKLTGSTVLNGAIDPTNVTLTSGATWNIPDNATVQSVVDDLSHAGQIHFTSARTGKFVPTTLQVKNLNGQNGTISLRVRPDMAQNNADRLVIDGGRATGKTILNLVNAGNSGTGLATTGKGIQVVEAINGATTEEGAFVQGNMLQAGAFNYTLNRDSDESWYLRSEE
notes: also called Ag43bCFT073^α
With B6, in series [5], the binding result is “binds”.

B7: Ag43 passenger domain (Ag43^α) from E. coli strain EDL933 (other)
chain: ADKVVQAGETVNDGTLTNHDNQIVFGTANGMTISTGLELGPDSEENTGGQWIQNGGIAGNTTVTTNGRQVVLEGGTASDTVIRDGGGQSLNGLAVNTTLNNRGEQWVHEGGVATGTIINRDGYQSVKSGGLATGTIINTGAEGGPDSDNSYTGQKVQGTAESTTINKNGRQIILFSGLARDTLIYAGGDQSVHGRALNTTLNGGYQYVHRDGLALNTVINEGGWQVVKAGGAAGNTTINQNGELRVHAGGEATAVTQNTGGALVTSTAATVIGTNRLGNFTVENGKADGVVLESGGRLDVLESHSAQNTLVDDGGTLAVSAGGKATSVTITSGGALIADSGATVEGTNASGKFSIDGTSGQASGLLLENGGSFTVNAGGQAGNTTVGHRGTLTLAAGGSLSGRTQLSKGASMVLNGDVVSTGDIVNAGEIRFDNQTTPNAALSRAVAKSNSPVTFHKLTTTNLTGQGGTINMRVRLDGSNASDQLVINGGQATGKTWLAFTNVGNSNLGVATTGQGIRVVDAQNGATTEEGAFALSRPLQAGAFNYTLNRDSDE
B7: the binding result in series [6] is “binds”.
